The RNAGym collection of RNA variant scans (doi:10.1073/pnas.2313332121)

B1: TPR t1 (parent)
chain: GACCAAUCUGCCCUCAGAGCUCGAGAACAUCUUCGGAUGCAGAGGAGGCAGGCUUCGGUGGCGCGAUAGCGCCAACGUCCUCAACCUCCAAUGCAUCCCACCACAUGAUGAUGCCUGAAGAGCCUUGGUUUUUUG

Variants of: B1
Assay: polymerase ribozyme fitness, log enrichment relative to wild type (log ratio); higher = more active; in vitro selection for triplet polymerase activity
How it was run: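 Both subunits of a heterodimeric triplet polymerase ribozyme were given their own mutant library, built by PCR and transcribed. Each library was annealed with a biotinylated primer, the partner subunit and triplets, incubated frozen at −7 °C, and its extended constructs gel-excised, captured on streptavidin beads and amplified by RT-PCR, all in one round done in triplicate. Fitness is the logarithm of genotype enrichment relative to wild-type enrichment, with replicates averaged by inverse-variance weighting. That logarithm is base 2, and Illumina-sequenced genotypes needed ≥10 input reads and ≥1 read per output.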

Row | Variant | polymerase ribozyme fitness (log ratio)
1 | GACCAAUCUGCCCUCAGAGCUCGAGAACAUCUUCGGAUGCAGAGGAGGCAGGCUUCGGUGGCGCGAUAGCACCAACGUCCUCAACCUCCAAUGAAUCCCACCACAUGAUGAUGCCUGAAGAGCCUUGGUUUUUUG | -2.86
2 | GACCAAUCUGCCCUCAGAGCUCGAGAACAUCUUCGGAUGCAGAGGAGGCAGGCUUCGGUGGCGCGAUAGCACCAACGUCCUCAACCUCCGAUGCAUCCCACCACAUGAUGAUGCCUGAAGAGCCUUGGUUUUUUG | -1.65
3 | GACCAAUCUGCCCUCAGAGCUCGAGAACAUCUUCGGAUGCAGAGGAGGCAGGCUUCGGUGGCGCGAUAGCACCAACGUCCUGAACCUCCAAUGCAUCCCACCACAUGAUGAUGCCUGAAGAGCCUUGGUUUUUUG | -2.5
4 | GACCAAUCUGCCCUCAGAGCUCGAGAACAUCUUCGGAUGCAGAGGAGGCAGGCUUCGGUGGCGCGAUAGCACCAACGUCCUUAACCUCCAAUGCAUCCCACCACAUGAUGAUGCCUGAAGAGCCUUGGUUUUUUG | -0.155
5 | GACCAAUCUGCCCUCAGAGCUCGAGAACAUCUUCGGAUGCAGAGGAGGCAGGCUUCGGUGGCGCGAUAGCACCAACGUCCUCAACCUCCAAUGCAUCCCACCACAUGAUGGUGCCUGAAUAGCCUUGGUUUUUUG | -2.5
6 | GACCAAUCUGCCCUCAGAGCUCGAGAACAUCUUCGGAUGCAGAGGAGGCAGGCUUCGGUGGCGCGAUAGCACCAACGUCCUCAACCUCCAAUGCAUCCCACCACAUGAUGAUGACUGAAGAGCCUUGGUUUUUUG | -1.41
7 | GACCAAUCUGCCCUCAGAGCUCGAGAACAUCUUCGGAUGCAGAGGAGGCAGGCUUCGGUGGCGCGAUAGUGCCAACGUCCUCAACCUCCAAUGCAUCCCACCACAUGAUGAUGCCUGAAGAGCCUUGGUUUCUUG | -0.89
8 | GACCAAUCUGCCCUCAGAGCUCGAGAACAUCUUCGGAUGCAGAGGAGGCAGGCUUCGGUGGCGCGAUAGUGCCAACGUCCUCAACCUCCAAUGCAUCCCACCACAUGAUGAUGCCUGAAGAGCCUUGGUUUUGUG | -1.12
9 | GACCAAUCUGCCCUCAGAGCUCGAGAACAUCUUCGGAUGCAGAGGAGGCAGGCUUCGGUGGCGCGAUAGCACCUACGUCCUCAACCUCCAAUGCAUCCCACCACAUGAUGAUGCCUGAAGAGCCUUGGUUUUUUG | -3.83
10 | GACCAAUCUGCCCUCAGAGCUCGAGAACAUCUUCGGAUGCAGAGGAGGCAGGCUUCGGUGGCGCGAUAGCACCAACGUCCUCAACCUCCAAUGCAUCCCACCACAUGAUGAUGCCUGAAGAGGCUUGGUUUUUUG | 1.1
11 | GACCAAUCUGCCCUCAGAGCUCGAGAACAUCUUCGGAUGCAGAGGAGGCAGGCUUCGGUGGCGCGAUAGCACCAACGUCCUCAACCUCCAAUGCAUCCCACCACAUGAUGCUGCCUGUAGAGCCUUGGUUUUUUG | -0.257
12 | GACCAAUCUGCCCUCAGAGCUCGAGAACAUCUUCGGAUGCAGAGGAGGCAGGCUUCGGUGGCGCGAUAGCACCAACGUCCUCAACUUCCAAUGCAUCCCACCACAUGAUGAUGCCUGAAGAGCCUUGGUUUUUUG | 0.0346
13 | GACCAAUCUGCCCUCAGAGCUCGAGAACAUCUUCGGAUGCAGAGGAGGCAGGCUUCGGUGGCGCGAUAGCACCAACGUCCUCAACAUCCAAUGCAUCCCACCACAUGAUGAUGCCUGAAGAGCCUUGGUUUUUUG | -1.85
14 | GACCAAUCUGCCCUCAGAGCUCGAGAACAUCUUCGGAUGCAGAGGAGGCAGGCUUCGGUGGCGCGAUAGCACCAACGUCCUCAACCUCCAAUGCAUCCUACCACACGAUGAUGCCUGAAGAGCCUUGGUUUUUUG | -5.44
15 | GACCAAUCUGCCCUCAGAGCUCGAGAACAUCUUCGGAUGCAGAGGAGGCAGGCUUCGGUGGCGCGAUAGCACCAACGUCCUCAACCUCCAGUGCAUCCCACCACAUGAUGAUGCCUGAAGAGCCUUGGUUUUUUG | -2.18
16 | GACCAAUCUGCCCUCAGAGCUCGAGAACAUCUUCGGAUGCAGAGGAGGCAGGCUUCGGUGGCGCGAUAGCACCAACGUACUCAAUCUCCAAUGCAUCCCACCACAUGAUGAUGCCUGAAGAGCCUUGGUUUUUUG | -2.89
17 | GACCAAUCUGCCCUCAGAGCUCGAGAACAUCUUCGGAUGCAGAGGAGGCAGGCUUCGGUGGCGCGAUAGCACCAACGUCCUCAACCUCCAAUGCAUCCUACCACAUGAUGAUGCAUGAAGAGCCUUGGCUUUUUU | -5.53
18 | GACCAAUCUGCCCUCAGAGCUCGAGAACAUCUUCGGAUGCAGAGGAGGCAGGCUUCGGUGGCGCGAUAGCACCAACGUCUUCAACCUCCAAUGCAUCCCACCACAUGAUGAUGCCUGAAGAGCCUUGGUUUUUUG | -2.57
19 | GACCAAUCUGCCCUCAGAGCUCGAGAACAUCUUCGGAUGCAGAGGAGGCAGGCUUCGGUGGCGCGAUAGCACCAACGUGCUCAACCUCCAAUGCAUCCCACCACAUGAUGAUGCCUGAAGAGCGAUGGUUUUUUG | -3.71
20 | GACCAAUCUGCCCUCAGAGCUCGAGAACAUCUUCGGAUGCAGAGGAGGCAGGCUUCGGUGGCGCGAUAGUGCCAACGUCCUCAACCUCCAAUGCAUCCCACCACAUGAUGAUGCCUGAAGAGCCUUGGUGUUUUG | -1.24
21 | GACCAAUCUGCCCUCAGAGCUCGAGAACAUCUUCGGAUGCAGAGGAGGCAGGCUUCGGUGGCGCGAUAGCACCAACGUCCUCAACCUCCAAUGCAUCCCACCACAUGAUGAUGCCUGAAGAGCCUUGGUUUUUUG | -0.673
